Experimental data from patent EP3766894A1.
Positions of bridges follow the written chain, without caps; N, C: chain ends. Non-standard residues stand in square brackets, D forms with d. Primed or numbered codes have the meaning given here. Chains are numbered I, II in the order given. No end group written: not given here. *: point of attachment. Palmitoyl = CCCCCCCCCCCCCCCC(=O)*; hArg = N=C(N)NCCCC[C@H](N)C(=O)O; Nle = CCCC[C@H](N)C(=O)O; PEG2″ = not defined here

Assays:
[1] = biological target: human serum albumin (HSA) (human), P02768; test: fluorescence polarization
[2] = biological target: human Kallikrein-related peptidase 7 (hKLK7) (human), P49862; test: activity assay
human Kallikrein-related peptidase 7 (hKLK7) (human), P49862, sequence (P49862 30-253 limits assumed): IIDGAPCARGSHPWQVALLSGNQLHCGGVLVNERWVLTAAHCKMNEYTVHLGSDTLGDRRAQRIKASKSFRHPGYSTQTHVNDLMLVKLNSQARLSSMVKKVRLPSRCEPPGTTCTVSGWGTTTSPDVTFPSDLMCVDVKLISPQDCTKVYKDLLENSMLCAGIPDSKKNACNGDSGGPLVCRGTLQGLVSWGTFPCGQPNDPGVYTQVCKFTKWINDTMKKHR

Kd [1]: 164 nM
Ki [2]: 7.4 nM
B1: KLK7 inhibitor 278-tag (final KLK7 inhibitor) (peptide)
peptide 1: PCLY[Nle]A[hArg]CGKG
peptide 2: {fluorescein-PEG2″}-EYEK(Palmitoyl)EYE
modifications: bridge I:2-I:8; not fully specified (bridges); also: chain 2 C-terminus joined via PEG2 to Lys side chain of GKG linker
